Where two headings read alike, the source gives them in different places.
B1: 16D6-CPI (antibody, V domains shown)
VH: QVQLKESGPGLVAPSQSLSITCTVSGFSLTNFDISWIRQPPGKGLEWLGVMWTGGGTNYNSAFMSRLSISRDISKSQVSLKMSSLQTDDTAIYYCVRGDTYFFAMDYWGQGTSVTVSS
VL: DIVMSQSPSSLAVSAGEKVTMSCKSSQSLLSSGTRKNFLSWYQQKTGQSPKLLIYWASTRGSGVPDRFTGSGSGTDFTLTISSVQTEDLAVYYCKQSYNLYTFGGGTKLEIKR
modifications: CPI agent through an AcLysValCitPABC linker, DAR ~2; site not stated for this antibody
B2: 20D7-CPI (antibody, V domains shown)
VH: EVQLVESGGGLVQPGGSLRLSCAASGYSITDFLMYWVRQAPGKGLEWVAWIDPEDGETKYAQKFQSKARFTISRDNAKNSLYLQMNSLRAEDTAVYYCARWGYITDYFYGGFTYWGRGTLVTVSS
VL: DIQMTQSPPVLSASVGDRVTLSCKASQNINKNLDWYQQKHGEAPKLLIYHTNTLQMGIPSRFSGSGSGTDYALTITSLQPEDVATYYCYQYNSGPTFGAGTKLELRR
modifications: CPI agent through an AcLysValCitPABC linker, DAR ~2; site not stated for this antibody
B3: 3D1-CPI (antibody, V domains shown)
VH: EVQLQQSGPELVKPGASVKMSCKASGYTFSDYFMKWVKQSHGKRLEWIGDINPNNGETFYNHHFKGKATLTIDKSSSTAYMQLNSLTSDDSAVYYCARPRRGNAMDFWGQGTSVTVSS
VL: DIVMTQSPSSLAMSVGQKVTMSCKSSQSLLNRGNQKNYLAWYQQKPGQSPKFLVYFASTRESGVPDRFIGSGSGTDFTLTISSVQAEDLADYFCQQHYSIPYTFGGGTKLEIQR
modifications: CPI agent through an AcLysValCitPABC linker, DAR ~2; site not stated for this antibody
B4: h18G3-AcLysValCitPABC-DMAE-CO_CPI-000638314 (antibody, IgG1, V domains shown)
VH: EVQLVESGGGLVQPGGSLRLSCAASGFSLTSGDISWVRQAPGKGLEWVAVIWSGGGTNYGSRLMSRFTISRDNAKNSLYLQMNSLRAEDTAVYYCARDWGNFYFDYWGQGTLVTVSS
VL: DIQMTQSPSSLSASVGDRVTITCKSSQSLLSSGTRKNYLAWYQQKPGKAPKLLIYWASTRQSGVPSRFSGSGSGTDFTLTISSLQPEDFATYYCSQSYNLYTFGQGTKLEIKR
modifications: AcLysValCitPABC-DMAE-CO_CPI linker-agent conjugated site-specifically at Q296 (LLQG tag), DAR ~2
B5: 18G3 conjugated to CTI (glucuronide) (antibody, V domains shown)
VH: EVQLVESGGGLVQPGGSLRLSCAASGFSLTSGDISWVRQAPGKGLEWVAVIWSGGGTNYGSRLMSRFTISRDNAKNSLYLQMNSLRAEDTAVYYCARDWGNFYFDYWGQGTLVTVSS
VL: DIQMTQSPSSLSASVGDRVTITCKSSQSLLSSGTRKNYLAWYQQKPGKAPKLLIYWASTRQSGVPSRFSGSGSGTDFTLTISSLQPEDFATYYCSQSYNLYTFGQGTKLEIKR
modifications: CTI (glucuronide) agent conjugated; linker and site not stated
B6: 18G3 conjugated to iPr-calicheamicin (antibody, V domains shown)
VH: EVQLVESGGGLVQPGGSLRLSCAASGFSLTSGDISWVRQAPGKGLEWVAVIWSGGGTNYGSRLMSRFTISRDNAKNSLYLQMNSLRAEDTAVYYCARDWGNFYFDYWGQGTLVTVSS
VL: DIQMTQSPSSLSASVGDRVTITCKSSQSLLSSGTRKNYLAWYQQKPGKAPKLLIYWASTRQSGVPSRFSGSGSGTDFTLTISSLQPEDFATYYCSQSYNLYTFGQGTKLEIKR
modifications: iPr-calicheamicin conjugated; linker and site not stated

What was measured:
Experiment in all cases: cell-based or functional assay
[1] = biological target: T1, CD123 (alpha chain of the interleukin-3 receptor) (human, UniProt P26951 19-378)
[2] = biological target: T1, CD123 (alpha chain of the interleukin-3 …); remark: listed apart in the source
[3] = biological target: T1, CD123 (alpha chain of the interleukin-3 …); remark: listed apart in the source
[4] = biological target: T1, CD123 (alpha chain of the interleukin-3 …); remark: listed apart in the source

T1 sequence (P26951 19-378): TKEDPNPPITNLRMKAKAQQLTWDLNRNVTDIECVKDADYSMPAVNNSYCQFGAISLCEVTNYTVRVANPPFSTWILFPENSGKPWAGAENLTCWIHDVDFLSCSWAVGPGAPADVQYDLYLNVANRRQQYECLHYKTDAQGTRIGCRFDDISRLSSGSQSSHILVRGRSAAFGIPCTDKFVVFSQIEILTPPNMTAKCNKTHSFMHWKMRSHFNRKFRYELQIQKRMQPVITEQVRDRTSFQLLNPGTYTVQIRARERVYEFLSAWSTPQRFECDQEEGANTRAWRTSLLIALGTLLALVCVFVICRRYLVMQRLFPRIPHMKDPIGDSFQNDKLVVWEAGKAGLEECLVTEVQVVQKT

| Binder | IC50 (ng/mL), 2D in vitro cytotoxicity (CelltiterGlo, 96 hours), JVM3 cells (CD123 ++) [1] [ng/mL] | IC50 (ng/mL), 2D in vitro cytotoxicity (CelltiterGlo, 96 hours), MOLM13 cells (CD123 +++) [1] [ng/mL] | IC50 (ng/mL), 2D in vitro cytotoxicity (CelltiterGlo, 96 hours), MV411 cells (CD123 +++) [1] [ng/mL] | IC50 (ng/mL), cytotoxicity in MOLM13 cells, IL-3 at 0 ng/ml [2] [ng/mL] | IC50 (ng/mL), cytotoxicity in MOLM13 cells, IL-3 at 0.3 ng/ml [2] [ng/mL] | IC50 (ng/mL), cytotoxicity in MOLM13 cells, IL-3 at 1 ng/ml [2] [ng/mL] | IC50 (ng/mL), cytotoxicity in MV4-11 cells, IL-3 at 0 ng/ml [2] [ng/mL] | IC50 (ng/mL), cytotoxicity in MV4-11 cells, IL-3 at 0.3 ng/ml [2] [ng/mL] | IC50 (ng/mL), cytotoxicity in MV4-11 cells, IL-3 at 1 ng/ml [2] [ng/mL] | further results |
| --- | --- | --- | --- | --- | --- | --- | --- | --- | --- | --- |
| B1 | 0.59 | 0.22 | 0.4 | 0.23 | 0.23 | 0.19 | 1.25 | 1.13 | 1.13 | – |
| B2 | – | 0.32 | – | – | – | – | – | – | – | – |
| B3 | – | 0.33 | – | – | – | – | – | – | – | – |
| B4 | 0.69 | 0.25 | 0.41 | 0.14 | 0.12 | 0.14 | 1.07 | 1.05 | 0.21 | IC50 (ng/mL), 2D in vitro cytotoxicity (CelltiterGlo, 96 hours), Granta519 cells (CD123 ++) [1]: 0.38 ng/mL; IC50 (ng/mL), 2D in vitro cytotoxicity (CelltiterGlo, 96 hours), NB4 cells (CD123 +) [1]: 63.9 ng/mL; IC50 (ng/mL), 2D in vitro cytotoxicity (CelltiterGlo, 96 hours), OCI-AML3 cells (CD123 +) [1]: 2.65 ng/mL |
| B5 | – | – | – | – | – | – | – | – | – | IC50 (ng/mL), in vitro cytotoxicity, Granta519 cells (CD123 ++) [3]: 0.26 ng/mL; IC50 (ng/mL), in vitro cytotoxicity, JVM3 cells (CD123 ++) [3]: 1.3 ng/mL; IC50 (ng/mL), in vitro cytotoxicity, MOLM13 cells (CD123 +++) [3]: 0.33 ng/mL; IC50 (ng/mL), in vitro cytotoxicity, MV411 cells (CD123 +++) [3]: 0.51 ng/mL; IC50 (ng/mL), in vitro cytotoxicity, NB4 cells (CD123 +) [3]: 38.6 ng/mL; IC50 (ng/mL), in vitro cytotoxicity, OCI-AML3 cells (CD123 +) [3]: 2.58 ng/mL |
| B6 | – | – | – | – | – | – | – | – | – | IC50 (ng/mL), in vitro cytotoxicity, MOLM13 cells (CD123 +++) [4]: 0.0508 ng/mL; IC50 (ng/mL), in vitro cytotoxicity, MV4-11 cells (CD123 +++) [4]: 0.125 ng/mL |

Source: patent US20200283536A1 (Pfizer, published 2020)
